In the supplement of paper PMC10126150:
± gives the standard deviation of the averaged measurements.

These sequences were tested on ATP (assay: switch fluorescence ratio, 500 uM ATP over buffer (Cy3 cluster intensity, sum of 5 cycles each) (fold (ratio)); higher = stronger signal-on switching upon ATP binding; sequences stand for … in TCGTCGGCAGCGTCAGATGTGTATAAGAGACAGTTTTTTTTTTTTTTTTTTTTTTTTT…TC). Settings: aptamer strand: ATP DNA aptamer (quencher-CACCTGGGGGAGTATTGCGGAGGAAGG + anchor), 100 nM annealed; ATP concentration: 500 uM.
How it was run: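 Five buffer/ATP imaging cycles were run on Cy3-labelled switching-strand clusters on a modified Illumina MiSeq flow-cell, with NaOH stripping and re-annealing between cycles. In each cycle, clusters annealed to 100 nM quencher-labelled ATP aptamer were imaged in selection buffer, then after 15 min with 500 uM ATP at 22 °C. Per cluster, the fluorescence ratio is summed target-cycle over summed buffer-cycle Cy3 intensity, averaged per switch-domain sequence. Only clusters within 100-1000 RFU were kept.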
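Also: ATP exposure 15 min at 22 °C before imaging.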

Row | Sequence | switch fluorescence ratio
1 | GGTTGGATGG | 0.9995 ± 0.0007
2 | TAAGTGATG | 1 ± 0.034
3 | CAATTAGGAG | 0.979 ± 0.024
4 | TCTTTGATGA | 0.983 ± 0.051
5 | GCCGGTTCTG | 1.06 ± 0.022
6 | GCGATAAACC | 1.1929 ± 0.00026
7 | ACGAAATAGG | 1.07 ± 0.035
8 | ATTGTGATGA | 1.024 ± 0.0085
9 | ACATCCGTCG | 1.06 ± 0.022
10 | GGGACCTGCT | 0.951 ± 0.02
11 | AGGTTTGTTT | 0.976 ± 0.0092
12 | CTTCATCTTT | 0.996 ± 0.018
13 | CTTACGGGGT | 1.1 ± 0.093
14 | ACGATGTACT | 1.1 ± 0.013
15 | CTTCTGGGCG | 1.02 ± 0.032
16 | TGGCTTAGTT | 0.9956 ± 0.0026
17 | CGATGGTGGG | 0.987 ± 0.0088
18 | ACCGTGATGT | 1.08 ± 0.024
19 | CAGGGTGCCA | 1.003 ± 0.0003
20 | TGATAGACAT | 0.988 ± 0.019
21 | TATCGTTTAA | 0.987 ± 0.032
22 | TTATGTGTGT | 0.996 ± 0.028
23 | TTACTTAAAA | 0.988 ± 0.04
24 | TTGATCTCTT | 1.01 ± 0.026
25 | GTTGGTTCGT | 1.02 ± 0.034

Row | Sequence | switch fluorescence ratio
26 | TTGGTTTGAG | 1.016 ± 0.0031
27 | CGGGGGATGG | 1.01 ± 0.045
28 | GCGTCAATTA | 1.08 ± 0.03
29 | GGTCTAGATA | 0.99 ± 0.026
30 | GGATGGCTCG | 0.993 ± 0.051
31 | CCTTTTTGT | 0.993 ± 0.027
32 | GAGTTTCATG | 0.963 ± 0.015
33 | AGGGGATTCA | 1.02 ± 0.02
34 | TCGTACTTTT | 0.989 ± 0.05
35 | TAATAGGTTG | 0.97 ± 0.012
36 | GGTTTATGGG | 0.975 ± 0.037
37 | TATACATGCG | 1.04 ± 0.025
38 | GGGGGATCAT | 0.9921 ± 0.0016
39 | ATCGGACGCT | 1.06 ± 0.023
40 | TGTTAGGGGT | 1 ± 0.075
41 | ATAAGATTGT | 0.963 ± 0.058
42 | TTTTTGCGGC | 0.999 ± 0.03
43 | AGGGGTTGTG | 1 ± 0.024
44 | GAACTGCGGA | 1.01 ± 0.019
45 | TCAGATTGCA | 1.007 ± 0.0025
46 | AGGATAAATT | 0.983 ± 0.025
47 | GTGAGATGTA | 0.991 ± 0.045
48 | TAGCGTCTGT | 0.983 ± 0.02
49 | TGGTAATTGG | 0.98 ± 0.01
50 | CGATGTCACG | 1 ± 0.033

Row | Sequence | switch fluorescence ratio
51 | GGGCTTGGGC | 0.976 ± 0.035
52 | CGTTATGTTC | 0.9772 ± 0.0031
53 | ACATGCACGG | 1.268 ± 0.0013
54 | TCGACCCAGC | 1.104 ± 0.0032
55 | CGGACTAGCG | 0.944 ± 0.032
56 | TTGGGCCATG | 1.05 ± 0.027
57 | TTAACCGGTA | 1.02 ± 0.0039
58 | TGAGAGGTCT | 1.017 ± 0.0097
59 | AGAAGGGGAT | 1.01 ± 0.021
60 | TAGCACGGAT | 1.02 ± 0.038
61 | GGTAATTGAA | 0.9878 ± 0.0076
62 | GAGGCTTTTT | 0.979 ± 0.024
63 | ACGGGCATCG | 1.02 ± 0.032
64 | GAGTTAGTCA | 0.975 ± 0.024
65 | CGGGTTTTCC | 1.03 ± 0.042
66 | CGAAAGCTTG | 1.05 ± 0.02
67 | TTGGAGACGG | 1.023 ± 0.0012
68 | TTTTCCGCGC | 2.08 ± 0.47
69 | ACTGCATCTA | 1.09 ± 0.033
70 | GGGACACGGT | 0.987 ± 0.023
71 | AGGTTTAAGG | 0.9726 ± 0.0058
72 | AGAATCAGGT | 0.9701 ± 0.0014
73 | ATATAGTGTA | 0.99 ± 0.029
74 | TTTGTCCTTA | 0.9932 ± 0.0017
75 | GAAGGCACGG | 1.04 ± 0.047

Row | Sequence | switch fluorescence ratio
76 | CGTCCTGAGG | 1.04 ± 0.019
77 | TACGGGCACG | 1.04 ± 0.028
78 | TTGGTCTATG | 0.986 ± 0.027
79 | AAGCCGTCGG | 1.02 ± 0.013
80 | AGAGGTATAC | 0.969 ± 0.011
81 | CTTAGGCCAG | 0.998 ± 0.032
82 | GATGTTAGTG | 1.003 ± 0.008
83 | GGGTCAACGC | 0.9974 ± 0.0036
84 | TTACTTTGCT | 1.003 ± 0.0061
85 | CGTTTACAAG | 0.985 ± 0.033
86 | AACTGTGTAC | 1.056 ± 0.0085
87 | TTTAAAAGGC | 1.01 ± 0.028
88 | TGAAAAAATC | 0.987 ± 0.019
89 | GACGGCTCAG | 1 ± 0.015
90 | TCCGGGTCTG | 1.03 ± 0.072
91 | TTGCTACTGT | 0.983 ± 0.018
92 | TTCAGTTCGA | 0.9971 ± 0.0057
93 | CAGGGATTTG | 0.9599 ± 0.0044
94 | ATCAAGGGGT | 1.01 ± 0.019
95 | GGACATGGAC | 0.9775 ± 0.0044
96 | AAAGAGTTGC | 0.9785 ± 0.0069
97 | TTGTTTTCGC | 1.04 ± 0.046
98 | ATGCCATGTG | 1 ± 0.022
99 | GAGGGATTCT | 0.99037 ± 0.00064
100 | GCTTCTAGCT | 0.969 ± 0.011

Row | Sequence | switch fluorescence ratio
101 | AGCTTATGTT | 0.985 ± 0.017
102 | GGCTGGGGGA | 1.01 ± 0.024
103 | TTCATGCCTG | 1.12 ± 0.092
104 | GATTTAGGTG | 1.12 ± 0.0065
105 | CCGTTCTCGC | 1.31 ± 0.048
106 | GCAGGAGGGA | 1.01 ± 0.039
107 | TTGGGACAGC | 1.003 ± 0.0014
108 | GAGTTCTTCA | 0.973 ± 0.015
109 | GGGTAGGGGG | 0.989 ± 0.02
110 | TGGGTAGAAA | 0.975 ± 0.032
111 | GATTTTTGCC | 1.01 ± 0.031
112 | TGGGGGCTTC | 0.9896 ± 0.0091
113 | ACGCCAGCTA | 1.137 ± 0.004
114 | AAAGAGTCCT | 1.01 ± 0.029
115 | GGGGGTTGTT | 0.997 ± 0.025
116 | ATATTCGTG | 0.985 ± 0.013
117 | AGATGGTTTC | 0.993 ± 0.042
118 | ACGGCGCTTG | 1.051 ± 0.0053
119 | ACTCGTTTAT | 0.99 ± 0.013
120 | AGGGGAATGT | 0.979 ± 0.026
121 | TCATGCTTGT | 0.985 ± 0.035
122 | GGAATGTTTG | 0.977 ± 0.035
123 | GACATAGACC | 1.048 ± 0.0075
124 | TGAATCTTGG | 1.02 ± 0.044
125 | CTATGTTCGC | 0.954 ± 0.023

Row | Sequence | switch fluorescence ratio
126 | CGGGAATTAG | 1.01 ± 0.035
127 | TTTCGGATGT | 0.984 ± 0.04
128 | TTGAGATTAT | 0.986 ± 0.015
129 | AATAAAAGAT | 1 ± 0.017
130 | GATTATCATT | 0.9669 ± 0.0093
131 | AGTTCGGATG | 1 ± 0.057
132 | GAAGGACGGG | 1 ± 0.025
133 | CAGGTAGATG | 0.9959 ± 0.0086
134 | TAAATAAGTT | 1.004 ± 0.0097
135 | GAGTTATTGT | 0.9806 ± 0.0095
136 | TGATTCCGCT | 1.41 ± 0.025
137 | CGCGTTGTTG | 1.03 ± 0.012
138 | ACGTCGATGG | 0.995 ± 0.019
139 | TGTTGGTGTA | 0.994 ± 0.01
140 | GATGTAGGAA | 1.013 ± 0.0065
141 | GCCTGAAAGC | 0.9912 ± 0.0054
142 | ACTTATGTTG | 0.995 ± 0.024
143 | GTGATACACG | 1.004 ± 0.0033
144 | CCACCTATCT | 1.09 ± 0.052
145 | GACTTAGGAC | 1.02 ± 0.021
146 | GTGATTGGGG | 0.97 ± 0.028
147 | CGCGAGAATA | 1.01 ± 0.084
148 | GGACTCCCAT | 1.23 ± 0.074
149 | TTGTTTATCA | 0.9865 ± 0.0096
150 | CGGTTAACCA | 1.02 ± 0.021

Row | Sequence | switch fluorescence ratio
151 | ACTTGGTCGA | 0.9902 ± 0.0095
152 | GGGTATCACG | 1 ± 0.017
153 | GGGTATACGG | 0.982 ± 0.086
154 | TTTGTGGCTT | 1.38 ± 0.65
155 | GTATAAATGC | 0.988 ± 0.046
156 | ATTAAATCAG | 1.013 ± 0.0058
157 | CAGCGAAGAG | 1.01 ± 0.0025
158 | TGGGTCCGCG | 1.123 ± 0.0092
159 | TTAGTATTTA | 1.01 ± 0.056
160 | TGAGCGAGTG | 0.957 ± 0.028
161 | ATTACTTAAG | 1 ± 0.046
162 | TCAAAGGGTC | 1 ± 0.088
163 | TTGTAGGGCC | 1.03 ± 0.022
164 | GGGGGGTTTC | 1.1 ± 0.2
165 | GTTTGGGTCA | 1.03 ± 0.011
166 | ATTATCTACT | 1.04 ± 0.026
167 | TTGGGGAA | 0.985 ± 0.025
168 | CTAGTTGGTA | 0.994 ± 0.027
169 | GACGGGTTTC | 0.991 ± 0.017
170 | TTGAAAGTTC | 1 ± 0.077
171 | TTAGTTTAAT | 1.02 ± 0.024
172 | TGGACTCTGG | 0.973 ± 0.02
173 | AGGTTGAGGT | 1.08 ± 0.12
174 | ACGATCGGGC | 1.06 ± 0.05
175 | AAAGCGGGGG | 1.04 ± 0.016

Row | Sequence | switch fluorescence ratio
176 | GGAAAAATCG | 1.013 ± 0.0051
177 | TTTGCAATTA | 1.57 ± 0.5
178 | AGCCGCTTCA | 0.9803 ± 0.0053
179 | GGGGGAAACT | 1.013 ± 0.0073
180 | TATAATCGGT | 0.975 ± 0.014
181 | TTTTGTTGTA | 0.996 ± 0.024
182 | CGGAAGTGTG | 0.981 ± 0.039
183 | GCCAATTACG | 1.11 ± 0.03
184 | CTGGGGCAGA | 1.02 ± 0.011
185 | GCTATGGTGC | 1.026 ± 0.0038
186 | GTCGCTAATG | 0.996 ± 0.016
187 | AGGGCGTCTG | 1.01 ± 0.058
188 | TTGATCCAGT | 0.997 ± 0.031
189 | TTTCTTTTTG | 0.99 ± 0.034
190 | AAATGAATTT | 0.976 ± 0.014
191 | CTCGCGTTAA | 1.11 ± 0.13
192 | CAGTGTTAGG | 1 ± 0.034
193 | TTTCAACGAT | 1 ± 0.029
194 | CGAATATTAA | 0.994 ± 0.013
195 | TTGGGATCCG | 0.985 ± 0.016
196 | TGCATTCAGG | 1.02 ± 0.03
197 | TATTTGAATC | 1.15 ± 0.24
198 | GCTTCAATGT | 1.03 ± 0.067
199 | GGAGAAGGCG | 0.994 ± 0.053
200 | AGTAGCAAG | 1.08 ± 0.036
